Test results as given in article PMC7393995.

Molecular target: CD162 (P-selectin glycoprotein ligand-1), mouse, on MLL-AF9 AML blasts (mouse (endogenous in murine MLL-AF9 AML blasts)) (UniProt Q62170)
Assay: flow cytometry on cells; E-selectin–IgM supernatant precomplexed with AF647 anti-human IgM F(ab)2, added to KIT+-enriched BM cells from leukemic mice (WT or Selplg-/- MLL-AF9 AML), 30 min on ice; gated on GFP+ KIT+ blasts; control: empty-vector IgM

Sequence of UniProt Q62170 (Q62170 42-397): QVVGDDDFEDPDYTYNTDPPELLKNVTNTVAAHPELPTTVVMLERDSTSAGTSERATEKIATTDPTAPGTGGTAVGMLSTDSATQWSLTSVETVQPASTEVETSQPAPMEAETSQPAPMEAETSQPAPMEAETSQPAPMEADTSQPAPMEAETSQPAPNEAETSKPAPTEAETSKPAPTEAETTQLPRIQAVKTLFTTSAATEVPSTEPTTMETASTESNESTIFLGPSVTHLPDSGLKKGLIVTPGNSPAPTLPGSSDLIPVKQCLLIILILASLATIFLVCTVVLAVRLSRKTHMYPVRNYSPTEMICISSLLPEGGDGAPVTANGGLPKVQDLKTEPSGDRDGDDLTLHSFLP

percent of gated AML blasts that bound E-selectin–IgM: 65%
Substance: recombinant E-selectin–human-IgM fusion protein (from UniProt P16581 22-610)
